From PMC4458873

Molecular target: Purified recombinant Syrian hamster vimentin (Syrian hamster) (UniProt P02544)
Assay: cross-linking; vimentin at 3 μM, preincubated without or with 150 mM NaCl, 20 μM DBB for 1 h at 37 °C; 7.5% SDS-PAGE and WB

fold cross-linked dimer, polymerized versus non-polymerized vimentin: 3.9 fold
Substance: Purified recombinant Syrian hamster vimentin (from UniProt P02544 1-465) (natural protein)
